Molecular target: Jak2 (UniProt O60674)
Assay: phosphorylation enrichment, bacterial display (enrichment ratio); higher = better substrate or ligand; peptides without Tyr show the background
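Further: 11-residue human phosphosite peptides and single-mutation variants displayed on the E. coli surface, counted by deep sequencing, each peptide's frequency after selection divided by its frequency in the unselected input library; frequency after pTyr selection over input frequency; kinase dosed for 20-30% of maximal phosphorylation in three min.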

Sequence of Jak2 (O60674 whole entry, looked up): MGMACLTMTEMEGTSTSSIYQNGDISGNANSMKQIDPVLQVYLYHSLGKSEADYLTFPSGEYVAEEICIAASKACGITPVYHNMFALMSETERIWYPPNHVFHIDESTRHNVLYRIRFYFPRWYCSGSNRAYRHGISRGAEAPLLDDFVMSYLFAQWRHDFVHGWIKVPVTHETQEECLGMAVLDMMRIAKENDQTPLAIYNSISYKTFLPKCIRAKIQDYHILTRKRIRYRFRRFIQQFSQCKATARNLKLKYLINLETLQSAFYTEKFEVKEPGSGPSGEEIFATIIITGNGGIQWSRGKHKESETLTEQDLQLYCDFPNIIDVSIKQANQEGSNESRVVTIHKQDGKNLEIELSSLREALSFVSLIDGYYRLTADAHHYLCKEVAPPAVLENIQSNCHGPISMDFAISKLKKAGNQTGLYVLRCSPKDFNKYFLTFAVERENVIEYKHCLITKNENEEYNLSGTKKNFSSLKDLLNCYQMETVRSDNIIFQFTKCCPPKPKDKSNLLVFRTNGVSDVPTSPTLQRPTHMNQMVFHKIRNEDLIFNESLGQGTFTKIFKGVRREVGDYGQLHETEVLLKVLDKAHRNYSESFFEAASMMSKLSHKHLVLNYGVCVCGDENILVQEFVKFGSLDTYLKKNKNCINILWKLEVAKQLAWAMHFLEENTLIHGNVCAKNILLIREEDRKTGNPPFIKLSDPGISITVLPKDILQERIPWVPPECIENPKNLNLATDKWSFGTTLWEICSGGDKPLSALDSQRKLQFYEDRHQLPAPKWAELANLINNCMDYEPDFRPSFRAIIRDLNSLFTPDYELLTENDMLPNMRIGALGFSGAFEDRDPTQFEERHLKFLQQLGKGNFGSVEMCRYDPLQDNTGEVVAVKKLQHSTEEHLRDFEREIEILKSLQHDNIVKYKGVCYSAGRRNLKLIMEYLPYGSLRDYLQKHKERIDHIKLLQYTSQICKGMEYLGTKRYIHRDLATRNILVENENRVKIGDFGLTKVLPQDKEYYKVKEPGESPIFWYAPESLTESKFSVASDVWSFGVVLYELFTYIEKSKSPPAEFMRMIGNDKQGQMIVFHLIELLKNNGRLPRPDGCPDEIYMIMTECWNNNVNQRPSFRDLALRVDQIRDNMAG

Question: Which phosphorylation enrichment does the source give for APRKVYDTQDD [ZFPL1_Y215_R218Q] here?
Answer: The phosphorylation enrichment was 0.808.

Question: Which phosphorylation enrichment does the source give for GCVRMYELVHR [GLE1_Y135] here?
Answer: Its phosphorylation enrichment is 1.01.

Question: For LSIQCYLRASD [HMGCS2_Y262_L266S], which phosphorylation enrichment is on record?
Answer: The phosphorylation enrichment was 2.95.

Question: QPGTDYKIYLY [FN1_Y1970] was tested. Which phosphorylation enrichment did it give?
Answer: Its phosphorylation enrichment is 1.69.

Question: DSNLIYSQIWS [FCRL3_Y662_P660L] was tested. Which phosphorylation enrichment did it give?
Answer: Its phosphorylation enrichment is 2.46.

Question: With AASTDYFKRGD [PDHA1_Y242_YF] as the sequence, how does the phosphorylation enrichment read?
Answer: The phosphorylation enrichment was 0.57.

Question: For KDFTKYVAYIE [KDM4B_Y31_N29T], which phosphorylation enrichment is on record?
Answer: Its phosphorylation enrichment is 0.921.

Question: TLQWMYGCDVG [HLA-B_Y123_S121W] was tested. Which phosphorylation enrichment did it give?
Answer: The phosphorylation enrichment was 1.22.

Question: For SVVVPYKPPEV [TP53_Y220_E221K], which phosphorylation enrichment is on record?
Answer: The phosphorylation enrichment was 0.761.

Question: For CEAMEYQESKQ [BTK_Y511_L512Q], which phosphorylation enrichment is on record?
Answer: The phosphorylation enrichment was 1.19.

Question: For PFTRNYFVWAV [CYBA_Y87_R90W_YF], which phosphorylation enrichment is on record?
Answer: The phosphorylation enrichment was 7.13.

Question: With EFISEYCGEII [EZH2_Y641] as the sequence, how does the phosphorylation enrichment read?
Answer: The phosphorylation enrichment was 1.05.

Question: For EQAERYDDMAA [YWHAG_Y20], which phosphorylation enrichment is on record?
Answer: Its phosphorylation enrichment is 0.87.

Question: For PSELFYSKISP [SMG1_Y2254_G2258S_YF], which phosphorylation enrichment is on record?
Answer: The phosphorylation enrichment was 2.3.

Question: With AGARMYGVLPW [PLP1_Y207_D203G] as the sequence, how does the phosphorylation enrichment read?
Answer: Its phosphorylation enrichment is 0.55.

Question: Which phosphorylation enrichment does the source give for VVTGPYEKPSL [KIR3DS1_Y221_L220P] here?
Answer: Its phosphorylation enrichment is 0.69.

Question: GDRPVYSEDEQ [CHST6_Y362_Y358D] was tested. Which phosphorylation enrichment did it give?
Answer: The phosphorylation enrichment was 1.27.

Question: For SVVVPYEPSEV [TP53_Y220_P223S], which phosphorylation enrichment is on record?
Answer: Its phosphorylation enrichment is 1.02.

Question: Which phosphorylation enrichment does the source give for IIWDSYTTNKV [GNB1_Y85] here?
Answer: Its phosphorylation enrichment is 0.863.

Question: SSAKTYSRMRL [NBEAL2_Y1835_E1833K] was tested. Which phosphorylation enrichment did it give?
Answer: Its phosphorylation enrichment is 0.52.

Question: Which phosphorylation enrichment does the source give for LGPSDYFGETA [PRKAR1A_Y323_I327T] here?
Answer: Its phosphorylation enrichment is 0.749.

Question: How did the phosphorylation enrichment turn out when CTSIHYNYMCN [TP53_Y234_T231S] was run?
Answer: The phosphorylation enrichment was 0.733.

Question: With LAIERYVVVCK [RHO_Y136] as the sequence, how does the phosphorylation enrichment read?
Answer: Its phosphorylation enrichment is 1.9.

Question: Which phosphorylation enrichment does the source give for NGVSYYINLCQ [IGF2R_Y2025] here?
Answer: Its phosphorylation enrichment is 1.38.

Question: LWQTIYNLEAE [TNNT2_Y251_S249T] was tested. Which phosphorylation enrichment did it give?
Answer: Its phosphorylation enrichment is 1.73.

Question: For FPPTHYIRRMP [SLC4A11_Y820_V824M_YF], which phosphorylation enrichment is on record?
Answer: Its phosphorylation enrichment is 0.597.

Question: With GYQPDYGQPAG [SYP_Y278] as the sequence, how does the phosphorylation enrichment read?
Answer: The phosphorylation enrichment was 0.564.

Question: How did the phosphorylation enrichment turn out when MCTVDYLLRLQ [RYR1_Y3921_I3916M] was run?
Answer: Its phosphorylation enrichment is 1.19.

Question: With FGGLRYGFGVL [KRTAP20-2_Y13_YF] as the sequence, how does the phosphorylation enrichment read?
Answer: The phosphorylation enrichment was 0.753.

Question: Which phosphorylation enrichment does the source give for PGVDIYVSPNM [PADI3_Y51_I52V] here?
Answer: Its phosphorylation enrichment is 1.24.

Question: How did the phosphorylation enrichment turn out when CYVYYYSYLLK [PTEN_Y178_R173C] was run?
Answer: The phosphorylation enrichment was 1.53.

Question: DLAAQYTTVGH [SGSH_Y240_R245H] was tested. Which phosphorylation enrichment did it give?
Answer: The phosphorylation enrichment was 0.586.

Question: KGSEGYLAATF [NF1_Y2503_YF] was tested. Which phosphorylation enrichment did it give?
Answer: The phosphorylation enrichment was 0.709.

Molecular target: EPHB1 (UniProt P54762)
Sequence (P54762 whole entry, looked up): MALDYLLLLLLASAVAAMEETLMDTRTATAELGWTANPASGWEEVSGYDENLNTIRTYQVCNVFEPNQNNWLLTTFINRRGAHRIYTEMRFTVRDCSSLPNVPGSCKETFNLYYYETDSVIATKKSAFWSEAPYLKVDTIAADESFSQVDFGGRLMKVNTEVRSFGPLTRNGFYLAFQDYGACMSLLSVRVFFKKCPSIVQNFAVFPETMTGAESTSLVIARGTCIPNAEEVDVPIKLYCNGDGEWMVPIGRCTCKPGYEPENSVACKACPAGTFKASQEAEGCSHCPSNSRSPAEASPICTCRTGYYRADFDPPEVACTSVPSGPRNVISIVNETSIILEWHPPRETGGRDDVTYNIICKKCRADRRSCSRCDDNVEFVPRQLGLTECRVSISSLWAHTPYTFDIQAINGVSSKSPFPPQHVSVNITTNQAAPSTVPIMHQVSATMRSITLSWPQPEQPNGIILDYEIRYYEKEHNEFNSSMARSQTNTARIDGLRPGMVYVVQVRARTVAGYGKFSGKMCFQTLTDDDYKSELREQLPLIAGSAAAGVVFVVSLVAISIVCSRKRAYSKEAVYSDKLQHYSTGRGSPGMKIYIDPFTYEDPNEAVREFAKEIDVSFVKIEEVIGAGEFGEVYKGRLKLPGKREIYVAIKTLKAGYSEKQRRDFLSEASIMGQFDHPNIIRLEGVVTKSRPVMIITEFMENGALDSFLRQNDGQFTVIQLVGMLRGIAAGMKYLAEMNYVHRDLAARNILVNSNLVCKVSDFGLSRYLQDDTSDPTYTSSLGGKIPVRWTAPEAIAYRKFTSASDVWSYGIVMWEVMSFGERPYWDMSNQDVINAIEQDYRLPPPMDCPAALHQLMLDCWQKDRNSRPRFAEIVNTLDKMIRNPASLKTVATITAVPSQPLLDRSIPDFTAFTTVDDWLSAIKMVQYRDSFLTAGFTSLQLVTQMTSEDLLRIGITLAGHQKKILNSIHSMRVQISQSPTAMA
Assay: as above

Question: Which phosphorylation enrichment does the source give for APRKVYDTQDD [ZFPL1_Y215_R218Q] here?
Answer: Its phosphorylation enrichment is 0.692.

Question: How did the phosphorylation enrichment turn out when GCVRMYELVHR [GLE1_Y135] was run?
Answer: The phosphorylation enrichment was 7.65.

Question: Which phosphorylation enrichment does the source give for LSIQCYLRASD [HMGCS2_Y262_L266S] here?
Answer: Its phosphorylation enrichment is 3.37.

Question: For QPGTDYKIYLY [FN1_Y1970], which phosphorylation enrichment is on record?
Answer: Its phosphorylation enrichment is 0.939.

Question: How did the phosphorylation enrichment turn out when DSNLIYSQIWS [FCRL3_Y662_P660L] was run?
Answer: The phosphorylation enrichment was 15.2.

Question: How did the phosphorylation enrichment turn out when AASTDYFKRGD [PDHA1_Y242_YF] was run?
Answer: Its phosphorylation enrichment is 0.372.

Question: KDFTKYVAYIE [KDM4B_Y31_N29T] was tested. Which phosphorylation enrichment did it give?
Answer: The phosphorylation enrichment was 0.651.

Question: With TLQWMYGCDVG [HLA-B_Y123_S121W] as the sequence, how does the phosphorylation enrichment read?
Answer: The phosphorylation enrichment was 0.744.

Question: How did the phosphorylation enrichment turn out when SVVVPYKPPEV [TP53_Y220_E221K] was run?
Answer: The phosphorylation enrichment was 0.501.

Question: CEAMEYQESKQ [BTK_Y511_L512Q] was tested. Which phosphorylation enrichment did it give?
Answer: The phosphorylation enrichment was 0.76.

Question: For PFTRNYFVWAV [CYBA_Y87_R90W_YF], which phosphorylation enrichment is on record?
Answer: The phosphorylation enrichment was 3.63.

Question: With EFISEYCGEII [EZH2_Y641] as the sequence, how does the phosphorylation enrichment read?
Answer: Its phosphorylation enrichment is 0.901.

Question: How did the phosphorylation enrichment turn out when EQAERYDDMAA [YWHAG_Y20] was run?
Answer: Its phosphorylation enrichment is 0.508.

Question: Which phosphorylation enrichment does the source give for PSELFYSKISP [SMG1_Y2254_G2258S_YF] here?
Answer: The phosphorylation enrichment was 1.59.

Question: For AGARMYGVLPW [PLP1_Y207_D203G], which phosphorylation enrichment is on record?
Answer: Its phosphorylation enrichment is 0.542.

Question: How did the phosphorylation enrichment turn out when VVTGPYEKPSL [KIR3DS1_Y221_L220P] was run?
Answer: The phosphorylation enrichment was 0.55.

Question: How did the phosphorylation enrichment turn out when GDRPVYSEDEQ [CHST6_Y362_Y358D] was run?
Answer: The phosphorylation enrichment was 0.812.

Question: How did the phosphorylation enrichment turn out when SVVVPYEPSEV [TP53_Y220_P223S] was run?
Answer: The phosphorylation enrichment was 0.632.

Question: With IIWDSYTTNKV [GNB1_Y85] as the sequence, how does the phosphorylation enrichment read?
Answer: The phosphorylation enrichment was 0.498.

Question: Which phosphorylation enrichment does the source give for SSAKTYSRMRL [NBEAL2_Y1835_E1833K] here?
Answer: The phosphorylation enrichment was 0.354.

Question: How did the phosphorylation enrichment turn out when LGPSDYFGETA [PRKAR1A_Y323_I327T] was run?
Answer: Its phosphorylation enrichment is 0.597.

Question: With CTSIHYNYMCN [TP53_Y234_T231S] as the sequence, how does the phosphorylation enrichment read?
Answer: Its phosphorylation enrichment is 0.99.

Question: How did the phosphorylation enrichment turn out when LAIERYVVVCK [RHO_Y136] was run?
Answer: Its phosphorylation enrichment is 0.938.

Question: NGVSYYINLCQ [IGF2R_Y2025] was tested. Which phosphorylation enrichment did it give?
Answer: Its phosphorylation enrichment is 0.787.

Question: For LWQTIYNLEAE [TNNT2_Y251_S249T], which phosphorylation enrichment is on record?
Answer: The phosphorylation enrichment was 1.3.

Question: How did the phosphorylation enrichment turn out when FPPTHYIRRMP [SLC4A11_Y820_V824M_YF] was run?
Answer: The phosphorylation enrichment was 0.528.

Question: Which phosphorylation enrichment does the source give for GYQPDYGQPAG [SYP_Y278] here?
Answer: Its phosphorylation enrichment is 0.442.

Question: MCTVDYLLRLQ [RYR1_Y3921_I3916M] was tested. Which phosphorylation enrichment did it give?
Answer: The phosphorylation enrichment was 0.597.

Question: With FGGLRYGFGVL [KRTAP20-2_Y13_YF] as the sequence, how does the phosphorylation enrichment read?
Answer: The phosphorylation enrichment was 0.443.

Question: With PGVDIYVSPNM [PADI3_Y51_I52V] as the sequence, how does the phosphorylation enrichment read?
Answer: The phosphorylation enrichment was 1.17.

Question: How did the phosphorylation enrichment turn out when CYVYYYSYLLK [PTEN_Y178_R173C] was run?
Answer: The phosphorylation enrichment was 1.15.

Question: For DLAAQYTTVGH [SGSH_Y240_R245H], which phosphorylation enrichment is on record?
Answer: The phosphorylation enrichment was 0.463.

Question: For KGSEGYLAATF [NF1_Y2503_YF], which phosphorylation enrichment is on record?
Answer: Its phosphorylation enrichment is 0.41.
